Experiment [1] deals with T1, anaplastic lymphoma kinase (ALK), human, endogenous in THP1 cells (human, UniProt Q9UM73 19-1620, limits assumed).
T1 construct: Endogenous protein in lysates of human THP1 monocytes; also called ALK Receptor Tyrosine Kinase
The experiment can be described thus: co-immunoprecipitation from THP1 cells after 3'3'-cGAMP or c-di-AMP (10 µg/ml, 16 h). As to the method: (§1) Concentrations of proteins in the supernatant were determined by bicinchoninic acid assay. […] Following incubation, agarose/sepharose beads were washed extensively with PBS and proteins were eluted by boiling in 2× sodium dodecyl sulfate (SDS) sample buffer before SDS-PAGE electrophoresis.
(§2) To elucidate the possible role of ALK in the regulation of the STING signaling pathway, we tested whether ALK promotes the phosphorylation of core components of the STING pathway (STING, TBK1, and cGAS) through protein-protein interaction using co-immunoprecipitation techniques.

The target of experiment [2] is T2, anaplastic lymphoma kinase (ALK), mouse, endogenous in iBMDMs and RAW264.7 cells (mouse, UniProt P97793 19-1621, limits assumed).
T2 construct: Endogenous protein in lysates of mouse macrophage lines (co-immunoprecipitation); also called ALK Receptor Tyrosine Kinase
Put plainly: co-immunoprecipitation from iBMDMs and RAW264.7 cells after 3'3'-cGAMP or c-di-AMP (10 µg/ml, 16 h). As to the method: as §1, §2

T2 sequence (P97793 19-1621 limits assumed): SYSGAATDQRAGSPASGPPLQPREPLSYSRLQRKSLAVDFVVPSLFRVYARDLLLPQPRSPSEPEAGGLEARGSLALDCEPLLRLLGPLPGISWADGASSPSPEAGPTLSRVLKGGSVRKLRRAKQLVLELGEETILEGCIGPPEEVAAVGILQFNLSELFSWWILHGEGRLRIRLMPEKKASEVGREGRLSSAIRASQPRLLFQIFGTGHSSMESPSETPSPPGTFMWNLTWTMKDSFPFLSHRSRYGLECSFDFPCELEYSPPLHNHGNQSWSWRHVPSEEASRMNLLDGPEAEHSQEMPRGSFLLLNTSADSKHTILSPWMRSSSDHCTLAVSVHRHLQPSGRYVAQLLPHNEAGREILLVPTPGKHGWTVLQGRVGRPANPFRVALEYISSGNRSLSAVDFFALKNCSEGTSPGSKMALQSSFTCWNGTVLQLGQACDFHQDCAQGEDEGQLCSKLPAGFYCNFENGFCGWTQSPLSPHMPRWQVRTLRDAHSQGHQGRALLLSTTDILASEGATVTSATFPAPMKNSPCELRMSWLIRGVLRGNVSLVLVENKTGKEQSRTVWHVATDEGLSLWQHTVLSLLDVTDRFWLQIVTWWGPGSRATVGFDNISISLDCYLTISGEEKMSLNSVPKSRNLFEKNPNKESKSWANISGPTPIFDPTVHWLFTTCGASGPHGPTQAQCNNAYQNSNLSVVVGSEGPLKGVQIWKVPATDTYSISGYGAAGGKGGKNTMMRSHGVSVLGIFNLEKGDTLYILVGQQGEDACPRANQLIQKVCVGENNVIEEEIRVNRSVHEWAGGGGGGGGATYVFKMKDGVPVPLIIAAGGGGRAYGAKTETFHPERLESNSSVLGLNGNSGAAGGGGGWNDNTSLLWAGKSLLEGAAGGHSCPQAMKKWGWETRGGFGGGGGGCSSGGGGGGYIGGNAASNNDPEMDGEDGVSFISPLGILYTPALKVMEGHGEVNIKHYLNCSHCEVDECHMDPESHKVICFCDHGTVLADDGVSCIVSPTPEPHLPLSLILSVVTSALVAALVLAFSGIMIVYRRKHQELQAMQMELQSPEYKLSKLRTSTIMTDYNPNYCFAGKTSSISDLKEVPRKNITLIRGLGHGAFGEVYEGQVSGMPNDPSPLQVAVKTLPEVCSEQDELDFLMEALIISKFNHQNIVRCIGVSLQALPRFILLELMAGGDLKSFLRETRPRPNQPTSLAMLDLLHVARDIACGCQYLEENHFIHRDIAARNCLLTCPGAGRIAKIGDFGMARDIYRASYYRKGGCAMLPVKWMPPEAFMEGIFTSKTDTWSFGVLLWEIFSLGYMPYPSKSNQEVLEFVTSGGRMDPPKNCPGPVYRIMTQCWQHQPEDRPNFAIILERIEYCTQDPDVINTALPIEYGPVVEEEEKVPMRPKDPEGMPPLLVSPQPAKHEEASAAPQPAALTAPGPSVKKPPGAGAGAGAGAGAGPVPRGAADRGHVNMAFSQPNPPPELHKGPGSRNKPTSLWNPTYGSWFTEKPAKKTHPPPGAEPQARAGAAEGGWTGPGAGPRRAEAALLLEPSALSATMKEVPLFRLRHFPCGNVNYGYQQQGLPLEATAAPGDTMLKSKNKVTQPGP
T1 sequence (Q9UM73 19-1620 limits assumed): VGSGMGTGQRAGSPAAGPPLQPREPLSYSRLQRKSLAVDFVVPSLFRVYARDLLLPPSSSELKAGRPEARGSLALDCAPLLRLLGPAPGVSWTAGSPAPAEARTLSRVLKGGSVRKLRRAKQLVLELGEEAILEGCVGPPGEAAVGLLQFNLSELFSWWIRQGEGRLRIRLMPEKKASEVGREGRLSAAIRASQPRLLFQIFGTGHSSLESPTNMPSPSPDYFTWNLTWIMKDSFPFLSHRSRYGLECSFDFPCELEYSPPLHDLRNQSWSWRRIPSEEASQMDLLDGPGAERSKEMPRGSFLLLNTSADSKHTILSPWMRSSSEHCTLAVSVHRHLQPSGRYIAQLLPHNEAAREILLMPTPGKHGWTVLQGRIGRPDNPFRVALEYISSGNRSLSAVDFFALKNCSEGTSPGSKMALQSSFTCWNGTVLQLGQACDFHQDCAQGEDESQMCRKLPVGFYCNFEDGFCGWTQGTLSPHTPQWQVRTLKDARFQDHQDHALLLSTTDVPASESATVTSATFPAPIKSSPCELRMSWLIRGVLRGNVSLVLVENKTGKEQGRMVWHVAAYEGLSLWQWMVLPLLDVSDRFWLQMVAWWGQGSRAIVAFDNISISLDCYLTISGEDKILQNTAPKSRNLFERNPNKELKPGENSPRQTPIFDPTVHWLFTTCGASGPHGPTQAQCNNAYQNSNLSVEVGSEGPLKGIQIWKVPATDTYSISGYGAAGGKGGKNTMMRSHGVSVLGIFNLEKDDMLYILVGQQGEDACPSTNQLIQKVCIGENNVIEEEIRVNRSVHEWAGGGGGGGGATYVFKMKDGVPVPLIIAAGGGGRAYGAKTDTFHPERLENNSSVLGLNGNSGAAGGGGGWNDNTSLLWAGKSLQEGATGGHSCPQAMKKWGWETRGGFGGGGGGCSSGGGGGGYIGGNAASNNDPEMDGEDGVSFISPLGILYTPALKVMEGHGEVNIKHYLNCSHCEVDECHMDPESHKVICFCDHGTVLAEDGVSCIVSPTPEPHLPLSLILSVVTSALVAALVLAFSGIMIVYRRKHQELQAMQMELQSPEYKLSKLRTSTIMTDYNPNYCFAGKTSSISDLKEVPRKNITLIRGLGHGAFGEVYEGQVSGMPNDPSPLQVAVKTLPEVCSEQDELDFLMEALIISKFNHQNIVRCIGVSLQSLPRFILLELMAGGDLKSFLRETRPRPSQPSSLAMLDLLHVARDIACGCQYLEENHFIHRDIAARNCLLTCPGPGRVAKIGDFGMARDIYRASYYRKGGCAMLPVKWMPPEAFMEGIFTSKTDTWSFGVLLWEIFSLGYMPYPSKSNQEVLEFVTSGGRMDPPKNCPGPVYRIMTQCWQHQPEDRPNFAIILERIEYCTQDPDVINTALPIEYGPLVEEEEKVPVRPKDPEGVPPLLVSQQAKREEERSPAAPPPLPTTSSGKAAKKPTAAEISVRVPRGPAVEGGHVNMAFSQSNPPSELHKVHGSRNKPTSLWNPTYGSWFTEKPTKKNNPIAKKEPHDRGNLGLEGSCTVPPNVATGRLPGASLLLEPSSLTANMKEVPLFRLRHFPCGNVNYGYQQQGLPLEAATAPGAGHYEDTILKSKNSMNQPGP

B1: TANK-binding kinase 1 (TBK1), human, endogenous in THP1 cells (enzyme, UniProt Q9UHD2 1-729, looked up)
chain: MQSTSNHLWLLSDILGQGATANVFRGRHKKTGDLFAIKVFNNISFLRPVDVQMREFEVLKKLNHKNIVKLFAIEEETTTRHKVLIMEFCPCGSLYTVLEEPSNAYGLPESEFLIVLRDVVGGMNHLRENGIVHRDIKPGNIMRVIGEDGQSVYKLTDFGAARELEDDEQFVSLYGTEEYLHPDMYERAVLRKDHQKKYGATVDLWSIGVTFYHAATGSLPFRPFEGPRRNKEVMYKIITGKPSGAISGVQKAENGPIDWSGDMPVSCSLSRGLQVLLTPVLANILEADQEKCWGFDQFFAETSDILHRMVIHVFSLQQMTAHKIYIHSYNTATIFHELVYKQTKIISSNQELIYEGRRLVLEPGRLAQHFPKTTEENPIFVVSREPLNTIGLIYEKISLPKVHPRYDLDGDASMAKAITGVVCYACRIASTLLLYQELMRKGIRWLIELIKDDYNETVHKKTEVVITLDFCIRNIEKTVKVYEKLMKINLEAAELGEISDIHTKLLRLSSSQGTIETSLQDIDSRLSPGGSLADAWAHQEGTHPKDRNVEKLQVLLNCMTEIYYQFKKDKAERRLAYNEEQIHKFDKQKLYYHATKAMTHFTDECVKKYEAFLNKSEEWIRKMLHLRKQLLSLTNQCFDIEEEVSKYQEYTNELQETLPQKMFTASSGIKHTMTPIYPSSNTLVEMTLGMKKLKEEMEGVVKELAENNHILERFGSLTMDGGLRNVDCL
notes: Endogenous protein in cell lysates; also called TBK1/NAK
Take B1: the binding result in experiment [1] is reported as “no binding”.

B2: TIR-domain-containing adapter-inducing interferon-β (TRIF), mouse, endogenous in iBMDMs and RAW264.7 cells (other, UniProt Q80UF7 1-732, looked up)
chain: MDNPGPSLRGAFGILGALERDRLTHLKHKLGSLCSGSQESKLLHAMVLLALGQDTEARVSLESLKMNTVAQLVAHQWADMETTEGPEEPPDLSWTVARLYHLLAEENLCPASTRDMAYQVALRDFASQGDHQLGQLQNEAWDRCSSDIKGDPSGFQPLHSHQGSLQPPSASPAVTRSQPRPIDTPDWSWGHTLHSTNSTASLASHLEISQSPTLAFLSSHHGTHGPSKLCNTPLDTQEPQLVPEGCQEPEEISWPPSVETSVSLGLPHEISVPEVSPEEASPILPDALAAPDTSVHCPIECTELSTNSRSPLTSTTESVGKQWPITSQRSPQVPVGDDSLQNTTSSSPPAQPPSLQASPKLPPSPLSSASSPSSYPAPPTSTSPVLDHSETSDQKFYNFVVIHARADEQVALRIREKLETLGVPDGATFCEEFQVPGRGELHCLQDAIDHSGFTILLLTASFDCSLSLHQINHALMNSLTQSGRQDCVIPLLPLECSQAQLSPDTTRLLHSIVWLDEHSPIFARKVANTFKTQKLQAQRVRWKKAQEARTLKEQSIQLEAERQNVAAISAAYTAYVHSYRAWQAEMNKLGVAFGKNLSLGTPTPSWPGCPQPIPSHPQGGTPVFPYSPQPPSFPQPPCFPQPPSFPQPPSFPLPPVSSPQSQSFPSASSPAPQTPGPQPLIIHHAQMVQLGVNNHMWGHTGAQSSDDKTECSENPCMGPLTDQGEPLLETPE
notes: Endogenous protein in cell lysates; also called TICAM-1
Take B2: the binding result in experiment [2] is “no binding”.

B3: stimulator of interferon genes (STING), mouse, endogenous in iBMDMs and RAW264.7 cells (other, UniProt Q3TBT3 1-378, looked up)
chain: MPYSNLHPAIPRPRGHRSKYVALIFLVASLMILWVAKDPPNHTLKYLALHLASHELGLLLKNLCCLAEELCHVQSRYQGSYWKAVRACLGCPIHCMAMILLSSYFYFLQNTADIYLSWMFGLLVLYKSLSMLLGLQSLTPAEVSAVCEEKKLNVAHGLAWSYYIGYLRLILPGLQARIRMFNQLHNNMLSGAGSRRLYILFPLDCGVPDNLSVVDPNIRFRDMLPQQNIDRAGIKNRVYSNSVYEILENGQPAGVCILEYATPLQTLFAMSQDAKAGFSREDRLEQAKLFCRTLEEILEDVPESRNNCRLIVYQEPTDGNSFSLSQEVLRHIRQEEKEEVTMNAPMTSVAPPPSVLSQEPRLLISGMDQPLPLRTDLI
notes: Endogenous protein in cell lysates
Take B3: the binding result in experiment [2] was “no binding”.

B4: cyclic-guanosine monophosphate-adenosine monophosphate (cGAMP) synthase (cGAS), human, endogenous in THP1 cells (enzyme, UniProt Q8N884 1-522, looked up)
chain: MQPWHGKAMQRASEAGATAPKASARNARGAPMDPTESPAAPEAALPKAGKFGPARKSGSRQKKSAPDTQERPPVRATGARAKKAPQRAQDTQPSDATSAPGAEGLEPPAAREPALSRAGSCRQRGARCSTKPRPPPGPWDVPSPGLPVSAPILVRRDAAPGASKLRAVLEKLKLSRDDISTAAGMVKGVVDHLLLRLKCDSAFRGVGLLNTGSYYEHVKISAPNEFDVMFKLEVPRIQLEEYSNTRAYYFVKFKRNPKENPLSQFLEGEILSASKMLSKFRKIIKEEINDIKDTDVIMKRKRGGSPAVTLLISEKISVDITLALESKSSWPASTQEGLRIQNWLSAKVRKQLRLKPFYLVPKHAKEGNGFQEETWRLSFSHIEKEILNNHGKSKTCCENKEEKCCRKDCLKLMKYLLEQLKERFKDKKHLDKFSSYHVKTAFFHVCTQNPQDSQWDRKDLGLCFDNCVTYFLQCLRTEKLENYFIPEFNLFSSNLIDKRSKEFLTKQIEYERNNEFPVFDEF
notes: as for B3
Turning to B4, the binding result in experiment [1] is listed as “no binding”.

B5: TANK-binding kinase 1 (TBK1), mouse, endogenous in iBMDMs and RAW264.7 cells (enzyme, UniProt Q9WUN2 1-729, looked up)
chain: MQSTSNHLWLLSDILGQGATANVFRGRHKKTGDLYAVKVFNNISFLRPVDVQMREFEVLKKLNHKNIVKLFAIEEETTTRHKVLIMEFCPCGSLYTVLEEPSNAYGLPESEFLIVLRDVVGGMNHLRENGIVHRDIKPGNIMRVIGEDGQSVYKLTDFGAARELEDDEQFVSLYGTEEYLHPDMYERAVLRKDHQKKYGATVDLWSVGVTFYHAATGSLPFRPFEGPRRNKEVMYKIITGKPSGAISGVQKAENGPIDWSGDMPLSCSLSQGLQALLTPVLANILEADQEKCWGFDQFFAETSDVLHRMVIHVFSLQHMTAHKIYIHSYNTAAVFHELVYKQTKIVSSNQELIYEGRRLVLELGRLAQHFPKTTEENPIFVTSREQLNTVGLRYEKISLPKIHPRYDLDGDASMAKAVTGVVCYACRTASTLLLYQELMRKGVRWLVELVKDDYNETVHKKTEVVITLDFCIRNIEKTVKVYEKLMKVNLEAAELGEISDIHTKLLRLSSSQGTIESSLQDISSRLSPGGLLADTWAHQEGTHPRDRNVEKLQVLLNCITEIYYQFKKDKAERRLAYNEEQIHKFDKQKLYYHATKAMSHFSEECVRKYEAFKDKSEEWMRKMLHLRKQLLSLTNQCFDIEEEVSKYQDYTNELQETLPQKMLAASGGVKHAMAPIYPSSNTLVEMTLGMKKLKEEMEGVVKELAENNHILERFGSLTMDGGLRNVDCL
notes: as for B1
Take B5: the binding result in experiment [2] is listed as “no binding”.
